39 molecules from patent publication US20260242478A1 (published 2026) can be followed below.

Where no end group is shown, it is not given here.

The target in test [1] is T1, PSMA Fab (biotinylated (site not stated)).
T1 construct: Biotinylated PSMA Fab captured on neutravidin plates in the phage ELISA; also called Anti-PSMA Fab; 006 PSMA Fab
Kind of test: phage ELISA, biotinylated PSMA Fab on neutravidin plate, anti-M13-HRP detection, blocking buffer alone.

For test [2], the target named is T1, PSMA Fab. The test can be described thus: phage ELISA, biotinylated PSMA Fab on neutravidin plate, anti-M13-HRP detection, competitor PSMA antigen pre-incubated. A general note: An ELISA detects its analyte on a solid surface through an enzyme-linked reagent.
Method: (§1) Clonal phage were harvested as crude supernatants and screened via standard ELISAs. […] Prior to the addition of clonal phage. wells were incubated with blocking buffer and PSMA antigen or blocking buffer alone. Without washing or aspirating, clonal phage supernatants were then added to the wells and incubated for a short time. Wells were then washed followed by detection of bound phage using a horse radish conjugated anti-M13 antibody.
Test [3] has as its target T2, PSMA Fab (006 PSMA Fab).
T2 construct: also called Anti-PSMA Fab; anti-PSMA Fab
The test can be described thus: clonal phage ELISA on biotinylated PSMA Fab captured on neutravidin plates, anti-M13 HRP detection.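 Also: crude clonal phage supernatants tested, before phage were added, wells were pretreated with PSMA antigen in blocking buffer or with blocking buffer only.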
Method: as §1

The target in test [4] is T2, PSMA Fab (006 PSMA Fab). The test can be described thus: clonal phage ELISA on captured PSMA Fab, wells pre-incubated with PSMA antigen as competitor, anti-M13 HRP detection.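 Also: crude clonal phage supernatants added, with no intervening wash, to wells preincubated with PSMA antigen in blocking buffer, incubated briefly, then washed before detecting bound phage.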
Method: as §1
For test [5], the target named is T3, PSMA Fab.
T3 construct: Biotinylated PSMA Fab captured on neutravidin coated plates in the phage ELISA; also called Anti-PSMA Fab; 006 PSMA Fab
The test can be described thus: clonal phage ELISA on biotinylated PSMA Fab captured on neutravidin plates, anti-M13 HRP detection.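 Also: crude clonal phage supernatants tested, before phage were added, wells were pretreated with PSMA antigen in blocking buffer or with blocking buffer only.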
Method: as §1

Test [6] concerns the target T3, PSMA Fab. Kind of test: clonal phage ELISA on captured PSMA Fab pre-incubated with PSMA antigen as competitor, anti-M13 HRP detection.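 Also: crude clonal phage supernatants tested by ELISA, wells first treated with blocking buffer plus PSMA antigen, bound phage read out via HRP-linked anti-M13 antibody.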
Method: as §1

As to GEHWCTPAWMCSVM [Phage-2659], the “Phage binding ELISA signal, Anti-PSMA Fab” value in the test with PSMA Fab [1] was determined as 0.919. The “Phage binding ELISA signal, Anti-PSMA Fab with PSMA antigen” value with PSMA Fab [2] is 0.68.
On to APQWCIPPWMCHDQ [Phage-2754], for which the “Phage binding ELISA signal, Anti-PSMA Fab” value with PSMA Fab (006 PSMA Fab) [3] was 0.691. Besides, the “Phage binding ELISA signal, Anti-PSMA Fab with PSMA antigen” value with PSMA Fab (006 PSMA Fab) [4] came out at 0.0708.
Take QDKWCTPTWMCEGL [Phage-2778]: the “Phage binding ELISA signal, Anti-PSMA Fab” value with PSMA Fab [5] was 0.631. For the same molecule, the “phage binding ELISA signal (Anti-PSMA Fab, PSMA antigen present)” value in the test with PSMA Fab [6] amounted to 0.0777.
On to DIKRCTPAWMCSWM [Phage-2742], for which the “Phage binding ELISA signal, Anti-PSMA Fab” value with PSMA Fab (006 PSMA Fab) [3] was determined as 0.709. Besides, the “Phage binding ELISA signal, Anti-PSMA Fab with PSMA antigen” value with PSMA Fab (006 PSMA Fab) [4] amounted to 0.0807.
Turning to VEKWCRPSWMCQQV [Phage-2660], in the test with PSMA Fab [1], the “Phage binding ELISA signal, Anti-PSMA Fab” value came out at 0.914. The “Phage binding ELISA signal, Anti-PSMA Fab with PSMA antigen” value with PSMA Fab [2] was found to be 0.09.
In the case of EENWCIPVWMCERL [Phage-2786], the “Phage binding ELISA signal, Anti-PSMA Fab” value with PSMA Fab [5] was determined as 0.607. Besides, in the test with PSMA Fab [6], the “phage binding ELISA signal (Anti-PSMA Fab, PSMA antigen present)” value was found to be 0.0721.

B1: Phage-2773 (peptide)
peptide: VPKWCTPSWMCASN
modifications: cysteine pairing not given here; also: fused to pIII, displayed on bacteriophage
For the molecule B1, the “Phage binding ELISA signal, Anti-PSMA Fab” value in the test with PSMA Fab [5] amounted to 0.643. The “phage binding ELISA signal (Anti-PSMA Fab, PSMA antigen present)” value with PSMA Fab [6] amounted to 0.0608.
For TNKLCIPTWMCSGF [Phage-2745], the “Phage binding ELISA signal, Anti-PSMA Fab” value in the test with PSMA Fab (006 PSMA Fab) [3] is 0.703. In addition, the “Phage binding ELISA signal, Anti-PSMA Fab with PSMA antigen” value in the test with PSMA Fab (006 PSMA Fab) [4] worked out at 0.0715.
Consider DQNWCIPHWMCVGI [Phage-2779], for which the “Phage binding ELISA signal, Anti-PSMA Fab” value with PSMA Fab [5] was 0.625. Moreover, the “phage binding ELISA signal (Anti-PSMA Fab, PSMA antigen present)” value with PSMA Fab [6] was 0.0883.
With GNLWCSPPWMCFGM [Phage-2749], in the test with PSMA Fab (006 PSMA Fab) [3], the “Phage binding ELISA signal, Anti-PSMA Fab” value is 0.696. The “Phage binding ELISA signal, Anti-PSMA Fab with PSMA antigen” value with PSMA Fab (006 PSMA Fab) [4] turned out to be 0.0732.
For ETSWCRPTWMCEGM [Phage-2752], the “Phage binding ELISA signal, Anti-PSMA Fab” value in the test with PSMA Fab (006 PSMA Fab) [3] stood at 0.693. Moreover, in the test with PSMA Fab (006 PSMA Fab) [4], the “Phage binding ELISA signal, Anti-PSMA Fab with PSMA antigen” value came to 0.0587.
As for FDKWCTPPWMCKVF [Phage-2744], in the test with PSMA Fab (006 PSMA Fab) [3], the “Phage binding ELISA signal, Anti-PSMA Fab” value worked out at 0.708. Also, the “Phage binding ELISA signal, Anti-PSMA Fab with PSMA antigen” value with PSMA Fab (006 PSMA Fab) [4] worked out at 0.143.
APKWCTPSWMCQQV [Phage-2661]: the “Phage binding ELISA signal, Anti-PSMA Fab” value with PSMA Fab [1] amounted to 0.908. Besides, the “Phage binding ELISA signal, Anti-PSMA Fab with PSMA antigen” value with PSMA Fab [2] came to 0.121.
Regarding SEKWCTPAWMCGDM [Phage-2747], in the test with PSMA Fab (006 PSMA Fab) [3], the “Phage binding ELISA signal, Anti-PSMA Fab” value stood at 0.7. Moreover, the “Phage binding ELISA signal, Anti-PSMA Fab with PSMA antigen” value in the test with PSMA Fab (006 PSMA Fab) [4] came out at 0.0842.
Turning to GPKWCTPTWMCEFS [Phage-2776], the “Phage binding ELISA signal, Anti-PSMA Fab” value in the test with PSMA Fab [5] turned out to be 0.638. Besides, in the test with PSMA Fab [6], the “phage binding ELISA signal (Anti-PSMA Fab, PSMA antigen present)” value was 0.0754.
In the case of GWNWCVPQWMCTTS [Phage-2781], the “Phage binding ELISA signal, Anti-PSMA Fab” value in the test with PSMA Fab [5] was 0.623. Besides, in the test with PSMA Fab [6], the “phage binding ELISA signal (Anti-PSMA Fab, PSMA antigen present)” value amounted to 0.121.
For QDKMCRPDWMCMNQ [Phage-2782], in that order: 0.621 and 0.0706.
As to VVKWCTPAWMCSLN [Phage-2663], in the test with PSMA Fab [1], the “Phage binding ELISA signal, Anti-PSMA Fab” value stood at 0.902. Also, the “Phage binding ELISA signal, Anti-PSMA Fab with PSMA antigen” value with PSMA Fab [2] came out at 0.0846.
As to VVKMCKPLWMCGIS [Phage-2746], in the test with PSMA Fab (006 PSMA Fab) [3], the “Phage binding ELISA signal, Anti-PSMA Fab” value came out at 0.701. Further, the “Phage binding ELISA signal, Anti-PSMA Fab with PSMA antigen” value with PSMA Fab (006 PSMA Fab) [4] was 0.0564.
In the same order, the values of DPKWCTPSWMCDWR [Phage-2755] are 0.69 and 0.0821.
For DWKWCIPAWMCSQD [Phage-2748], in that order: 0.697 and 0.0645.
In the same order, the values of GNSWCTPQWMCTGF [Phage-2740] are 0.712 and 0.0596.
On to DMKLCRPAWMCMHN [Phage-2784], for which the “Phage binding ELISA signal, Anti-PSMA Fab” value with PSMA Fab [5] was 0.621. Also, the “phage binding ELISA signal (Anti-PSMA Fab, PSMA antigen present)” value with PSMA Fab [6] came to 0.0536.
With EDIWCIPSWMCGVI [Phage-2751], in the test with PSMA Fab (006 PSMA Fab) [3], the “Phage binding ELISA signal, Anti-PSMA Fab” value was found to be 0.694. Further, the “Phage binding ELISA signal, Anti-PSMA Fab with PSMA antigen” value in the test with PSMA Fab (006 PSMA Fab) [4] came to 0.0663.
Take EFKWCIPMWMCQAN [Phage-2665]: the “Phage binding ELISA signal, Anti-PSMA Fab” value with PSMA Fab [1] amounted to 0.896. Further, the “Phage binding ELISA signal, Anti-PSMA Fab with PSMA antigen” value in the test with PSMA Fab [2] is 0.0753.
As for VLNWCTPPWMCSGI [Phage-2780], in the test with PSMA Fab [5], the “Phage binding ELISA signal, Anti-PSMA Fab” value amounted to 0.624. In addition, the “phage binding ELISA signal (Anti-PSMA Fab, PSMA antigen present)” value with PSMA Fab [6] was 0.0732.
In the same order, the values of DVKWCTPPWMCLSD [Phage-2785] are 0.613 and 0.1.
For IMKWCTPTWMCEMG [Phage-2743], the “Phage binding ELISA signal, Anti-PSMA Fab” value with PSMA Fab (006 PSMA Fab) [3] came to 0.708. Besides, in the test with PSMA Fab (006 PSMA Fab) [4], the “Phage binding ELISA signal, Anti-PSMA Fab with PSMA antigen” value came out at 0.122.
As for VQAWCVPQWMCNQF [Phage-2772], the “Phage binding ELISA signal, Anti-PSMA Fab” value with PSMA Fab [5] came out at 0.646. Also, the “phage binding ELISA signal (Anti-PSMA Fab, PSMA antigen present)” value with PSMA Fab [6] stood at 0.0631.
With DVKWCKPRWMCNRD [Phage-2750], the “Phage binding ELISA signal, Anti-PSMA Fab” value in the test with PSMA Fab (006 PSMA Fab) [3] turned out to be 0.695. Also, the “Phage binding ELISA signal, Anti-PSMA Fab with PSMA antigen” value in the test with PSMA Fab (006 PSMA Fab) [4] came out at 0.0701.
For MSKWCVPTWMCQWQ [Phage-2741], in that order: 0.711 and 0.0979.

B2: Phage-2771 (peptide)
peptide: QMHWCMPPWMCEGI
modifications: cysteine pairing not given here; also: fused to pIII, displayed on bacteriophage
As for B2, the “Phage binding ELISA signal, Anti-PSMA Fab” value with PSMA Fab [5] was determined as 0.65. Moreover, the “phage binding ELISA signal (Anti-PSMA Fab, PSMA antigen present)” value with PSMA Fab [6] worked out at 0.0705.
For SMKMCTPPWMCEFA [Phage-2774], in that order: 0.641 and 0.0631.
For DLKWCVPTWMCNWS [Phage-2775], in that order: 0.639 and 0.0692.
Consider ANHWCIPSWMCTEV [Phage-2753], for which the “Phage binding ELISA signal, Anti-PSMA Fab” value with PSMA Fab (006 PSMA Fab) [3] came to 0.692. The “Phage binding ELISA signal, Anti-PSMA Fab with PSMA antigen” value with PSMA Fab (006 PSMA Fab) [4] was found to be 0.162.
GSNWCKPAWMCSVA [Phage-2777]: the “Phage binding ELISA signal, Anti-PSMA Fab” value with PSMA Fab [5] stood at 0.634. Besides, in the test with PSMA Fab [6], the “phage binding ELISA signal (Anti-PSMA Fab, PSMA antigen present)” value turned out to be 0.0623.
On to VHKMCTPPWMCVTQ [Phage-2783], for which the “Phage binding ELISA signal, Anti-PSMA Fab” value with PSMA Fab [5] stood at 0.621. Besides, the “phage binding ELISA signal (Anti-PSMA Fab, PSMA antigen present)” value in the test with PSMA Fab [6] is 0.0908.
In the case of APHLCIPKWMCNPS [Phage-2664], the “Phage binding ELISA signal, Anti-PSMA Fab” value with PSMA Fab [1] turned out to be 0.899. Moreover, the “Phage binding ELISA signal, Anti-PSMA Fab with PSMA antigen” value with PSMA Fab [2] amounted to 0.105.
For the molecule DYKWCTPPWMCLVD [Phage-2662], the “Phage binding ELISA signal, Anti-PSMA Fab” value with PSMA Fab [1] is 0.904. Further, the “Phage binding ELISA signal, Anti-PSMA Fab with PSMA antigen” value with PSMA Fab [2] stood at 0.083.
